For two substances, Antibody per cell (Antibody per cell) and Kd results are on record in patent publication US20260226187A1.

Broadly, the Kd is the equilibrium constant for the complex coming apart.

The target of assay [1] is Human EpCAM expressed on cells (CHO-hEpCAM, HCT116) (human) (UniProt P16422). Nature of the assay: flow cytometry of HCT116 cells stained with PE anti-hEpCAM clone 9C4, quantified with the QuantiBrite PE bead standard curve. In general terms: In flow cytometry, cells or beads pass a laser one at a time.
Sequence of Human EpCAM expressed on cells (CHO-hEpCAM, HCT116) (human) (P16422 24-314): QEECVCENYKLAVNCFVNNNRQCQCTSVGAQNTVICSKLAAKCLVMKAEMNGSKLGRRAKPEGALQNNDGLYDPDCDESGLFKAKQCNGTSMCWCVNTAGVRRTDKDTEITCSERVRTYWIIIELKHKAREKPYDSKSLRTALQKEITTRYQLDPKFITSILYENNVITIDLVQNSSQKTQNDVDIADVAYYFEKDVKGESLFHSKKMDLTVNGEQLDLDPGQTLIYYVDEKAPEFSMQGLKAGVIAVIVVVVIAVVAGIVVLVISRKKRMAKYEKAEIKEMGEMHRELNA
For assay [2] the target is unchanged. The experiment in a line: flow cytometry of CHO-hEpCAM cells stained with PE anti-hEpCAM clone 9C4, quantified with the QuantiBrite PE bead standard curve.
Assay [3] concerns the target Cynomolgus EpCAM expressed on CHO cells (cynomolgus monkey). Nature of the assay: flow cytometry of CHO-cynoEpCAM cells stained with PE anti-hEpCAM clone 9C4, quantified with the QuantiBrite PE bead standard curve.
Assay [4] concerns the target FcγRI (CD64) (human) (UniProt P12314). Nature of the assay: SPR, His-captured FcγRI, antibody analyte, 1:1 model, PBST pH 7.4. Background: Surface plasmon resonance follows binding to a sensor surface in real time, without labels.
In assay [5] the target is FcRn (human) (UniProt P55899). Nature of the assay: SPR, antibody immobilised, FcRn analyte, steady state model, pH 6.0.
Sequence of FcRn (human) (P55899 24-297 limits assumed, chain 1 of 2): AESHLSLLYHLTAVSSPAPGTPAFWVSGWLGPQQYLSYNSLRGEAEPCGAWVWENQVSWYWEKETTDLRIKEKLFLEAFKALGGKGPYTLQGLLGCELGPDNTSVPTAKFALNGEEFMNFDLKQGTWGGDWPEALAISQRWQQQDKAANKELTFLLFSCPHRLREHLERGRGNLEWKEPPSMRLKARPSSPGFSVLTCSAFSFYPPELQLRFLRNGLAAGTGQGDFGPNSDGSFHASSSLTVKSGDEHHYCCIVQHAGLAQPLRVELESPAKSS
Sequence of FcRn (human) (chain, as listed by the source limits assumed, chain 2 of 2): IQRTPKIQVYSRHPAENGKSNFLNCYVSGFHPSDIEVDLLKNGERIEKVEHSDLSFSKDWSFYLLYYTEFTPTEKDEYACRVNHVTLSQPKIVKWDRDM
Assay [6] has as its target FcγRIIb/c (CD32b/c) (human) (UniProt P31994). The experiment in a line: SPR, His-captured FcγRIIb/c, antibody analyte, steady state model, HBS-EP+.
The target of assay [7] is FcγRIIIa F158 (CD16a) (human) (UniProt P08637). The experiment in a line: SPR, His-captured FcγRIIIa F158, antibody analyte, steady state model, HBS-EP+ (FIG. 31).
Sequence of FcγRIIIa F158 (CD16a) (human) (P08637 17-208): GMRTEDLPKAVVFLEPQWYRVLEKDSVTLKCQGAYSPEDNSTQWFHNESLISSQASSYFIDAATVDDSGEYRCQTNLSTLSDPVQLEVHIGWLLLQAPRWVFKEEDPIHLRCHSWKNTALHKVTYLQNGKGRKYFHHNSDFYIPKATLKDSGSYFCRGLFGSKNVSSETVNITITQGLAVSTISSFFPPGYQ
For assay [8], the target named is FcγRIIIb (CD16b) (human) (UniProt O75015). The experiment in a line: SPR, His-captured FcγRIIIb (CD16b), antibody analyte, steady state model, HBS-EP+ (legend of FIG. 32; receptor printed as FcγRIIIa).
Sequence of FcγRIIIb (CD16b) (human) (O75015 17-200 limits assumed): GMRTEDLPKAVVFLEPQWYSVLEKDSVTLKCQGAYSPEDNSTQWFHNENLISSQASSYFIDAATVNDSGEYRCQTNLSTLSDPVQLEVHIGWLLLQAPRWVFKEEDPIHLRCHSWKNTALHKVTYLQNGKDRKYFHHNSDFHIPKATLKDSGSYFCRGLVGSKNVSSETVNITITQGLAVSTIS

Sequence of FcγRI (CD64) (human) (P12314 16-292): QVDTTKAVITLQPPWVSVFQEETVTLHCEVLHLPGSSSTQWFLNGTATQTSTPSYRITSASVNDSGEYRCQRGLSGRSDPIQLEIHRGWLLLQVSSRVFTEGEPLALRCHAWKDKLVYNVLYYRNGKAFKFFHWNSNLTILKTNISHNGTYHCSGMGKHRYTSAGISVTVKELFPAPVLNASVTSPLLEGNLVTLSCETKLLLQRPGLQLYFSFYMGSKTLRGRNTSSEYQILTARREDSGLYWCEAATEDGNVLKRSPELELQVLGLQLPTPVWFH
Sequence of Cynomolgus EpCAM expressed on CHO cells (cynomolgus monkey) (Q1WER1 24-314): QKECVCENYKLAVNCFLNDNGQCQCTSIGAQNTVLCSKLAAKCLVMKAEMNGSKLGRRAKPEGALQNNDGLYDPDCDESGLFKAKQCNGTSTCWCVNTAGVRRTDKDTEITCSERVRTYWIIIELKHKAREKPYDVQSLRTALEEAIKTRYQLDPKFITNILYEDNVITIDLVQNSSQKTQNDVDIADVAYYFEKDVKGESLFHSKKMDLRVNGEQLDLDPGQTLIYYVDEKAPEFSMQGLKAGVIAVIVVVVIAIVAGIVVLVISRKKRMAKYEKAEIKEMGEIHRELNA
Sequence of FcγRIIb/c (CD32b/c) (human) (P31994 43-217): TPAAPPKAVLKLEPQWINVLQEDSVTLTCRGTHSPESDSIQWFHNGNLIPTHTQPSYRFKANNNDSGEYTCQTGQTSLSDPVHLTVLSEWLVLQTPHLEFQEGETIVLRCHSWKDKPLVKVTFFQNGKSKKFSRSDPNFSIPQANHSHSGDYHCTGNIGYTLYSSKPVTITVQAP

For the substance “Mouse anti-hEpCAM conjugated to PE, clone 9C4 (antibody)”, the Antibody per cell (Antibody per cell) in assay [1] amounted to 412000; in assay [2], 194000; in assay [3], 231000.
In the case of IgG1-ctrl mAb (antibody), the Kd in assay [4] amounted to 1.18 nM; in assay [5] it was 366 nM; in assay [6] it was 4200 nM; in assay [7], 860 nM; in assay [8], 6500 nM.
